Here are results for one substance from paper PMC3511584.

For test [1], the target named is circularly permuted RoCBM21 (CP90) (Rhizopus oryzae). Kind of test: AUC; sedimentation velocity, no ligand, protein around 1.0 mg/ml, 40,000 rpm, 25°C, absorbance at 280 nm, SEDFIT.
Test [2] shares this target. Kind of test: AUC; data not shown: apoCP90 at pH 2.5, 3, 4, 5, 6, 7, 8, 9 and 10, no ligand.

For the substance “circularly permuted RoCBM21 (CP90) (domain or fragment)”, the stoichiometry N in test [1] and in test [2] was 2 in each case.

What is called stoichiometry N is a count of units in the complex or per binding partner.
